Measurements published in US20130288983A1 (Amgen, published 2013).
Changes are numbered by the printed parent chain. Names and notes keep the numbering of the source.

T1: Activin A (Homo sapiens (Human), UniProt P08476 311-426)
T1 sequence: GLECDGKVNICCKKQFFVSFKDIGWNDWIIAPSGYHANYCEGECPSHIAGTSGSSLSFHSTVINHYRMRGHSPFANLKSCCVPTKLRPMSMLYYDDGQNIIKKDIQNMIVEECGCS

B1: ActRIIB-IgG1 Fc E28A, linker 2(GGGGS) (Fc fusion)
chain: SGRGEAETRACIYYNANWELERTNQSGLERCEGEQDKRLHCYASWRNSSGTIELVKKGCWLDDFNCYDRQECVATEENPQVYFCCCEGNFCNERFTHLPEAGGPEVTYEPPPTAPTGGGGSGGGGSAPELLGGPSVFLFPPKPKDILMISRTPEVTCVVVDVSHEDPEVKFNWYVGGVEVHNAKTKPREEQYNSTYRVVSVLTVLHQDWLNGKEYKCKVSNKALPAPIEKTISKAKGQPREPQVYTLPPSRDELTKNQVSLTCLVKGFYPSDIAVEWESNGQPENNYKTTPPVLDSDGSFFLYSKLTVDKSRWQQGNVFSCSVMHEALHNHYTQKSLSLSPGK
notes: Tested from conditioned media
B2: ActRIIB5-IgG1 Fc R40A, linker GGGGS (Fc fusion)
chain: SGRGEAETRECIYYNANWELEATNQSGLERCEGEQDKRLHCYASWRNSSGTIELVKKGCWLDDFNCYDRQECVATEENPQVYFCCCEGNFCNERFTHLPEAGGPEGPWASTTIPSGGPEATAAAGDQGSGALWLCLEGPAHEGGGGSAPELLGGPSVFLFPPKPKDILMISRTPEVTCVVVDVSHEDPEVKFNWYVGGVEVHNAKTKPREEQYNSTYRVVSVLTVLHQDWLNGKEYKCKVSNKALPAPIEKTISKAKGQPREPQVYTLPPSRDELTKNQVSLTCLVKGFYPSDIAVEWESNGQPENNYKTTPPVLDSDGSFFLYSKLTVDKSRWQQGNVFSCSVMHEALHNHYTQKSLSLSPGK
notes: Tested from conditioned media
B3: ActRIIB5-IgG1 Fc E28W R40A, linker GGGGS (Fc fusion)
chain: B2 chain with E10W
notes: Tested from conditioned media
B4: ActRIIB5-IgG1 Fc E28A, linker GGGGS (Fc fusion)
chain: B2 chain with E10A, A22R
notes: Tested from conditioned media
B5: ActRIIB5-IgG1 Fc wild type, no linker (Fc fusion)
chain: SGRGEAETRECIYYNANWELERTNQSGLERCEGEQDKRLHCYASWRNSSGTIELVKKGCWLDDFNCYDRQECVATEENPQVYFCCCEGNFCNERFTHLPEAGGPEGPWASTTIPSGGPEATAAAGDQGSGALWLCLEGPAHEAPELLGGPSVFLFPPKPKDILMISRTPEVTCVVVDVSHEDPEVKFNWYVGGVEVHNAKTKPREEQYNSTYRVVSVLTVLHQDWLNGKEYKCKVSNKALPAPIEKTISKAKGQPREPQVYTLPPSRDELTKNQVSLTCLVKGFYPSDIAVEWESNGQPENNYKTTPPVLDSDGSFFLYSKLTVDKSRWQQGNVFSCSVMHEALHNHYTQKSLSLSPGK
notes: Tested from conditioned media
B6: ActRIIB5-IgG1 Fc E28A, no linker (Fc fusion)
chain: B5 chain with E10A
notes: Tested from conditioned media
B7: ActRIIB-IgG1 Fc wild type, linker GGGGS (Fc fusion)
chain: SGRGEAETRECIYYNANWELERTNQSGLERCEGEQDKRLHCYASWRNSSGTIELVKKGCWLDDFNCYDRQECVATEENPQVYFCCCEGNFCNERFTHLPEAGGPEVTYEPPPTAPTGGGGSAPELLGGPSVFLFPPKPKDILMISRTPEVTCVVVDVSHEDPEVKFNWYVGGVEVHNAKTKPREEQYNSTYRVVSVLTVLHQDWLNGKEYKCKVSNKALPAPIEKTISKAKGQPREPQVYTLPPSRDELTKNQVSLTCLVKGFYPSDIAVEWESNGQPENNYKTTPPVLDSDGSFFLYSKLTVDKSRWQQGNVFSCSVMHEALHNHYTQKSLSLSPGK
notes: Tested from conditioned media
B8: ActRIIB-IgG1 Fc R40Y, linker GGGGS (Fc fusion)
chain: B7 chain with R22Y
notes: Tested from conditioned media
B9: ActRIIB-IgG1 Fc E28C, linker GGGGS (Fc fusion)
chain: B7 chain with E10C
notes: Tested from conditioned media
B10: ActRIIB-IgG1 Fc E28P, linker GGGGS (Fc fusion)
chain: B7 chain with E10P
notes: Tested from conditioned media
B11: ActRIIB-IgG1 Fc R40L, linker GGGGS (Fc fusion)
chain: B7 chain with R22L
notes: Tested from conditioned media
B12: ActRIIB-IgG1 Fc E28N, linker GGGGS (Fc fusion)
chain: B7 chain with E10N
notes: Tested from conditioned media
B13: ActRIIB-IgG1 Fc E28G, linker GGGGS (Fc fusion)
chain: B7 chain with E10G
notes: Tested from conditioned media
B14: ActRIIB-IgG1 Fc E28S, linker GGGGS (Fc fusion)
chain: B7 chain with E10S
notes: Tested from conditioned media
B15: ActRIIB-IgG1 Fc R40T, linker GGGGS (Fc fusion)
chain: B7 chain with R22T
notes: Tested from conditioned media
B16: ActRIIB-IgG1 Fc R40F, linker GGGGS (Fc fusion)
chain: B7 chain with R22F
notes: Tested from conditioned media
B17: ActRIIB-IgG1 Fc E28R, linker GGGGS (Fc fusion)
chain: B7 chain with E10R
notes: Tested from conditioned media
B18: ActRIIB-IgG1 Fc E28D, linker GGGGS (Fc fusion)
chain: B7 chain with E10D
notes: Tested from conditioned media
B19: ActRIIB-IgG1 Fc E28T, linker GGGGS (Fc fusion)
chain: B7 chain with E10T
notes: Tested from conditioned media
B20: ActRIIB-IgG1 Fc R40I, linker GGGGS (Fc fusion)
chain: B7 chain with R22I
notes: Tested from conditioned media
B21: ActRIIB-IgG1 Fc R40S, linker GGGGS (Fc fusion)
chain: B7 chain with R22S
notes: Tested from conditioned media
B22: ActRIIB-IgG1 Fc R40C, linker GGGGS (Fc fusion)
chain: B7 chain with R22C
notes: Tested from conditioned media
B23: ActRIIB-IgG1 Fc R40V, linker GGGGS (Fc fusion)
chain: B7 chain with R22V
notes: Tested from conditioned media
B24: ActRIIB-IgG1 Fc R40P, linker GGGGS (Fc fusion)
chain: B7 chain with R22P
notes: Tested from conditioned media
B25: ActRIIB-IgG1 Fc E28Y, linker GGGGS (Fc fusion)
chain: B7 chain with E10Y
notes: Tested from conditioned media
B26: ActRIIB-IgG1 Fc R40N, linker GGGGS (Fc fusion)
chain: B7 chain with R22N
notes: Tested from conditioned media
B27: ActRIIB-IgG1 Fc R40M, linker GGGGS (Fc fusion)
chain: B7 chain with R22M
notes: Tested from conditioned media
B28: ActRIIB-IgG1 Fc E28Q, linker GGGGS (Fc fusion)
chain: B7 chain with E10Q
notes: Tested from conditioned media
B29: ActRIIB-IgG1 Fc R40H, linker GGGGS (Fc fusion)
chain: B7 chain with R22H
notes: Tested from conditioned media
B30: ActRIIB-IgG1 Fc E28V, linker GGGGS (Fc fusion)
chain: B7 chain with E10V
notes: Tested from conditioned media
B31: ActRIIB-IgG1 Fc E28M, linker GGGGS (Fc fusion)
chain: B7 chain with E10M
notes: Tested from conditioned media
B32: ActRIIB-IgG1 Fc R40G, linker GGGGS (Fc fusion)
chain: B7 chain with R22G
notes: Tested from conditioned media
B33: ActRIIB-IgG1 Fc R40Q, linker GGGGS (Fc fusion)
chain: B7 chain with R22Q
notes: Tested from conditioned media
B34: ActRIIB-IgG1 Fc E28F, linker GGGGS (Fc fusion)
chain: B7 chain with E10F
notes: Tested from conditioned media
B35: ActRIIB-IgG1 Fc R40K, linker GGGGS (Fc fusion)
chain: B7 chain with R22K
notes: Tested from conditioned media
B36: ActRIIB-IgG1 Fc E28I, linker GGGGS (Fc fusion)
chain: B7 chain with E10I
notes: Tested from conditioned media
B37: ActRIIB-IgG1 Fc E28L, linker GGGGS (Fc fusion)
chain: B7 chain with E10L
notes: Tested from conditioned media
B38: ActRIIB-IgG1 Fc E28K, linker GGGGS (Fc fusion)
chain: B7 chain with E10K
notes: Tested from conditioned media
B39: ActRIIB-IgG1 Fc E28H, linker GGGGS (Fc fusion)
chain: B7 chain with E10H
notes: Tested from conditioned media
B40: ActRIIB-IgG1 Fc E28W, linker GGGGS (Fc fusion)
chain: B7 chain with E10W
notes: Tested from conditioned media

Molecular target: T1, Activin A
Test: Biacore SPR grade, CHO stable conditioned media, 20 nM activin A
Procedure: (§1) Qualitative BIAcore® Assay. E28 and R40 were substituted respectively with other natural amino acids in fusions with IgG1 Fc as described above. Each vActRIIB-IgG1Fc sample from conditioned media was captured on goat anti-human IgG1 Fc antibody (Jackson Immuno Research, cat#109-005-098, lot 63550) coated CMS surface. 20 nM of Activin A was injected over captured sample surfaces using BIACore2000 (BIACore Life Sciences, Piscataway, N.J.). The resulting sensorgrams were normalized to the captured RL (500 RU) of vActRIIB-IgG1Fc variants. The normalized binding response (RU) for some variants are shown in Table 2, and is further described below. Relative binding affinity for activin was also determined by Biacore measurements using conditioned media obtained from mammalian cell expression. Activin A (20 nM) was used to capture soluble receptor polypeptide in the conditioned media and measured SPR signals were normalized. Normalized SPR of +++++: >60, ++++:40-60, +++:20-40, ++:10-20, +: 5-10, −: <5.

Row | Normalized SPR | Binder
1 | 20 to 40 ru | B1
2 | 20 to 40 ru | B2
3 | 40 to 60 ru | B3
4 | 20 to 40 ru | B4
5 | 20 to 40 ru | B5
6 | 20 to 40 ru | B6
7 | 40 to 60 ru | B7

Molecular target: T1, Activin A
Test: Biacore SPR grade, COS transient conditioned media
Procedure: as §1

Row | normalized SPR signal | Binder
8 | < 5 ru | B8
9 | < 5 ru | B9
10 | < 5 ru | B10
11 | < 5 ru | B11
12 | < 5 ru | B12
13 | < 5 ru | B13
14 | < 5 ru | B14
15 | < 5 ru | B15
16 | < 5 ru | B16
17 | < 5 ru | B17
18 | < 5 ru | B18
19 | < 5 ru | B19
20 | < 5 ru | B20
21 | < 5 ru | B21
22 | < 5 ru | B22
23 | < 5 ru | B23
24 | < 5 ru | B24

Molecular target: T1, Activin A
Test: Biacore SPR grade, COS transient conditioned media, 20 nM activin A
Procedure: as §1

Row | normalized SPR signal | Binder
25 | 5 to 10 ru | B7
26 | > 60 ru | B25
27 | 10 to 20 ru | B26
28 | 5 to 10 ru | B27
29 | 5 to 10 ru | B28
30 | 10 to 20 ru | B29
31 | 5 to 10 ru | B30
32 | 10 to 20 ru | B31
33 | 20 to 40 ru | B32
34 | 5 to 10 ru | B33
35 | 20 to 40 ru | B34
36 | 10 to 20 ru | B35
37 | 10 to 20 ru | B36
38 | 5 to 10 ru | B37
39 | 5 to 10 ru | B38
40 | 5 to 10 ru | B39
41 | > 60 ru | B40
